Reference: US20210030857A1 (NGM BIOPHARMACEUTICALS, published 2021)

Molecular target: T1, cynomolgus monkey beta klotho protein (soluble, used in Biacore) (cynomolgus monkey (Macaca fascicularis), UniProt Q86Z14 53-996 (human entry), limits assumed)
T1 construct: Protein in solution; also called Cyno KLB; cyKLB
T1 chain: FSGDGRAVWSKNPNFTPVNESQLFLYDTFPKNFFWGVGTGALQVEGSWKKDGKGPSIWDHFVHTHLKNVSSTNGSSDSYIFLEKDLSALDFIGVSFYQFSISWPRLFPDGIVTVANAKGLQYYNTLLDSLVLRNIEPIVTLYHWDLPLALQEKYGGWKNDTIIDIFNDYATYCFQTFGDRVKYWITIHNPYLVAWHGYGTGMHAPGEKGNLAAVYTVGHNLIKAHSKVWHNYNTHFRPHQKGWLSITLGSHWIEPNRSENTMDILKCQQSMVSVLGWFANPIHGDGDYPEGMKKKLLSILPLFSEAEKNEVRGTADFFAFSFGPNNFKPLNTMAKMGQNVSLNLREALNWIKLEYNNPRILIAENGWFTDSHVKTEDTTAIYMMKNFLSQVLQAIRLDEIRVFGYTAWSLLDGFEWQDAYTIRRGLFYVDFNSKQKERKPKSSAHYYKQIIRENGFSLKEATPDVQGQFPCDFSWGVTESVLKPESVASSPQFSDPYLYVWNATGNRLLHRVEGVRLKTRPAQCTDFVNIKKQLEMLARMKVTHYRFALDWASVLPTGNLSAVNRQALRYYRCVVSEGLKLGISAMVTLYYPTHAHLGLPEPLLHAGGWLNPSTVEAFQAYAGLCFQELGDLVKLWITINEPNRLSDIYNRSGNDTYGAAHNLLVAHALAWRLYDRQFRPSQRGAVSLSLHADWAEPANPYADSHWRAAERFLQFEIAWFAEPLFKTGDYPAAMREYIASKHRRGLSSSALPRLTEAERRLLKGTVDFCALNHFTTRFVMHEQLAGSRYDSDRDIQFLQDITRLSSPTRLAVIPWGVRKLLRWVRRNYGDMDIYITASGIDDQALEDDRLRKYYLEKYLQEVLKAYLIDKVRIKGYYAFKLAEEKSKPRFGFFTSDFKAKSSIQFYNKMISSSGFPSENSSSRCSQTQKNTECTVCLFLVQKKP
Assay: Biacore SPR (as in Example 2)

B1: antibody 5H23 (antibody, V domains shown)
VH: QVQLQQSGPELVKPGALVKISCKASGYTFTSYDINWVKQRPGQGLEWIGWIYPGDGSTKYNEKFKGKATLTADKSSRTAYMQLSSLTSENSAVYFCARSDYYGSRSFAYWGQGTLVTVSA
VL: DIVLTQSPASLAVSLGQRATISCRASKSVSTSGYVYMHWNQQKPGQPPKLLIYLASYLESGVPARFSGSGSGTDFTLNIHPVEEEDAAIYYCQHSRDLTFPFGGGTKLEIK
notes: Murine monoclonal antibody from hybridoma; also called 5H23-Alexa647 (labelled form)
With B1 the Kd was 0.7 nM.
